Experimental data: article doi:10.1101/2023.07.16.549228 (bioRxiv, 2023)

B1: encapsulin from Thermotoga maritima (TmEnc) nanocage (natural protein)
chain: MEFLKRSFAPLTEKQWQEIDNRAREIFKTQLYGRKFVDVEGPYGWEYAAHPLGEVEVLSDENEVVKWGLRKSLPLIELRATFTLDLWELDNLERGKPNVDLSSLEETVRKVAEFEDEVIFRGCEKSGVKGLLSFEERKIECGSTPKDLLEAIVRALSIFSKDGIEGPYTLVINTDRWINFLKEEAGHYPLEKRVEECLRGGKIITTPRIEDALVVSERGGDFKLILGQDLSIGYEDREKDAVRLFITETFTFQVVNPEALILLKF
B2: Cy7-labelled TmEnc (TmEnc^Cy7) nanocage (natural protein, Thermotoga maritima)
chain: B1 chain
modifications: sulfo-Cy7 conjugated to lysine residues on the outer surface (~50 dye molecules per nanocage)

Molecular target: the molecule itself
Experiment: transmission electron microscopy

Protein | binding result
B1 | binds
B2 | binds
